Assay results as given in the supplement of paper PMC9112550, “Optimization of the antimicrobial peptide Bac7 by deep mutational scanning” (BMC Biology, 2022).

tested on: Escherichia coli TOP10; assay: shrunken log2 fold change of peptide-encoding DNA abundance (4.5 h post-induction vs induction); higher = less antimicrobial activity (less host growth inhibition); settings: time post-induction: 4.5 h; library: site-saturation at positions 5, 18, 19, 20
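Also: peptides expressed intracellularly from a pBAD plasmid library in pooled LB shake-flask culture, induced with 0.3% L-arabinose, DNA abundance read by NGS, three biological replicates, DESeq2 with apeglm shrinkage.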

Point of comparison: RRIRKRPPRLPRPRPRPTSPPRP, “shrunken log2 fold change” value 0.15. Against it:
- RRIRMRPPRLPRPRPRPKQWPRP — higher, 0.895
- RRIRDRPPRLPRPRPRPGWKPRP — within 0.2 log units, 0.136
- RRIRFRPPRLPRPRPRPAYRPRP — lower, -0.0676
- RRIRNRPPRLPRPRPRPFNHPRP — lower, -1.02
- RRIRKRPPRLPRPRPRPDNCPRP — within 0.2 log units, -0.0122
- RRIRFRPPRLPRPRPRPDHCPRP — lower, -0.0831
- RRIRHRPPRLPRPRPRPMQWPRP — within 0.2 log units, 0.00884
- RRIRARPPRLPRPRPRPEHEPRP — within 0.2 log units, 0.00993
- RRIRQRPPRLPRPRPRPYVIPRP — within 0.2 log units, 0.0316
- RRIRTRPPRLPRPRPRPHYAPRP — lower, -0.11
- RRIRWRPPRLPRPRPRPADGPRP — within 0.2 log units, 0.0472
- RRIRSRPPRLPRPRPRPNKKPRP — lower, -0.194
- RRIRRRPPRLPRPRPRPHIMPRP — lower, -0.435
- RRIRTRPPRLPRPRPRPREQPRP — within 0.2 log units, 0.198
- RRIRVRPPRLPRPRPRPFVFPRP — within 0.2 log units, -0.0359
- RRIRGRPPRLPRPRPRPNWDPRP — higher, 0.738
- RRIRTRPPRLPRPRPRPQVVPRP — within 0.2 log units, -0.0349
- RRIRTRPPRLPRPRPRPAKDPRP — lower, -0.399
- RRIRWRPPRLPRPRPRPGYMPRP — lower, -0.288
- RRIRKRPPRLPRPRPRPGDMPRP — within 0.2 log units, 0.277
- RRIRFRPPRLPRPRPRPKMRPRP — within 0.2 log units, 0.223
- RRIRLRPPRLPRPRPRPASDPRP — lower, -0.19
- RRIRERPPRLPRPRPRPIADPRP — within 0.2 log units, 0.13
- RRIRDRPPRLPRPRPRPDFTPRP — within 0.2 log units, -0.0299
- RRIRGRPPRLPRPRPRPANCPRP — within 0.2 log units, 0.147
- RRIRNRPPRLPRPRPRPTRKPRP — higher, 0.623
- RRIRARPPRLPRPRPRPLRRPRP — higher, 1.15
- RRIRYRPPRLPRPRPRPSMFPRP — lower, -1.02
- RRIRDRPPRLPRPRPRPWHDPRP — within 0.2 log units, 0.0315
- RRIRFRPPRLPRPRPRPTVSPRP — within 0.2 log units, -0.00542
- RRIRTRPPRLPRPRPRPYTCPRP — lower, -0.0764
- RRIRHRPPRLPRPRPRPPMTPRP — lower, -0.175
- RRIRARPPRLPRPRPRPTWRPRP — higher, 0.813
- RRIRWRPPRLPRPRPRPIIYPRP — lower, -0.327
- RRIRLRPPRLPRPRPRPWLQPRP — within 0.2 log units, 0.0325
- RRIRRRPPRLPRPRPRPDVNPRP — within 0.2 log units, 0.0369
- RRIRFRPPRLPRPRPRPQGAPRP — lower, -0.0798
- RRIRCRPPRLPRPRPRPWGWPRP — within 0.2 log units, 0.221
- RRIRCRPPRLPRPRPRPLHQPRP — lower, -0.168
- RRIRKRPPRLPRPRPRPLHAPRP — higher, 0.449
- RRIRFRPPRLPRPRPRPYGGPRP — within 0.2 log units, -0.00865
- RRIRMRPPRLPRPRPRPTYYPRP — lower, -0.554
- RRIRLRPPRLPRPRPRPWNEPRP — lower, -0.11
- RRIRLRPPRLPRPRPRPDYTPRP — lower, -0.295
- RRIRQRPPRLPRPRPRPLDHPRP — lower, -0.198
- RRIRNRPPRLPRPRPRPATMPRP — lower, -0.1
- RRIRSRPPRLPRPRPRPNGCPRP — within 0.2 log units, -0.0491
- RRIRNRPPRLPRPRPRPVGVPRP — within 0.2 log units, -0.0443
- RRIRCRPPRLPRPRPRPWCLPRP — lower, -0.339
- RRIRNRPPRLPRPRPRPKQEPRP — within 0.2 log units, 0.0268
- RRIRGRPPRLPRPRPRPVWIPRP — within 0.2 log units, 0.276
- RRIRKRPPRLPRPRPRPAGNPRP — within 0.2 log units, 0.304
- RRIRVRPPRLPRPRPRPVEHPRP — within 0.2 log units, 0.00181
- RRIRIRPPRLPRPRPRPIAQPRP — lower, -0.373
- RRIRTRPPRLPRPRPRPQIHPRP — lower, -0.15
- RRIRWRPPRLPRPRPRPCTHPRP — within 0.2 log units, 0.0298
- RRIRDRPPRLPRPRPRPAYIPRP — lower, -0.0656
- RRIRFRPPRLPRPRPRPQSTPRP — lower, -0.249
- RRIRVRPPRLPRPRPRPTIIPRP — lower, -0.479
- RRIRWRPPRLPRPRPRPLAGPRP — higher, 0.493
- RRIRDRPPRLPRPRPRPTKNPRP — within 0.2 log units, 0.0799
- RRIRFRPPRLPRPRPRPKCGPRP — within 0.2 log units, 0.0559
- RRIRPRPPRLPRPRPRPPDHPRP — within 0.2 log units, 0.182
- RRIRGRPPRLPRPRPRPWFCPRP — lower, -0.444
- RRIRNRPPRLPRPRPRPNKPPRP — lower, -0.122
- RRIRRRPPRLPRPRPRPTSFPRP — within 0.2 log units, 0.264
- RRIRPRPPRLPRPRPRPIEDPRP — lower, -0.0617
- RRIRQRPPRLPRPRPRPQHFPRP — within 0.2 log units, 0.14
- RRIRNRPPRLPRPRPRPLSWPRP — within 0.2 log units, 0.235
- RRIRPRPPRLPRPRPRPIIHPRP — lower, -0.707
- RRIRARPPRLPRPRPRPHFPPRP — within 0.2 log units, 0.0382
- RRIRGRPPRLPRPRPRPCTSPRP — within 0.2 log units, 0.188
- RRIRQRPPRLPRPRPRPVGRPRP — within 0.2 log units, 0.336
- RRIRPRPPRLPRPRPRPKCLPRP — lower, -0.0739
- RRIRNRPPRLPRPRPRPDRQPRP — within 0.2 log units, -0.0285
- RRIRARPPRLPRPRPRPQECPRP — within 0.2 log units, -0.0292
- RRIRMRPPRLPRPRPRPGIRPRP — within 0.2 log units, 0.253
- RRIRLRPPRLPRPRPRPTGGPRP — higher, 0.621
- RRIRSRPPRLPRPRPRPCYMPRP — lower, -0.562
- RRIRYRPPRLPRPRPRPFVEPRP — lower, -1.17
- RRIRMRPPRLPRPRPRPDVKPRP — within 0.2 log units, 0.343
- RRIRLRPPRLPRPRPRPTHYPRP — lower, -0.18
- RRIRTRPPRLPRPRPRPNCAPRP — lower, -0.254
- RRIRDRPPRLPRPRPRPMLLPRP — within 0.2 log units, 0.307
- RRIRSRPPRLPRPRPRPAKFPRP — lower, -0.134
- RRIRTRPPRLPRPRPRPAQEPRP — within 0.2 log units, -0.00523
- RRIRARPPRLPRPRPRPFCGPRP — within 0.2 log units, -0.0184
- RRIRMRPPRLPRPRPRPAFHPRP — within 0.2 log units, 0.319
- RRIRLRPPRLPRPRPRPFMQPRP — within 0.2 log units, 0.0179
- RRIRLRPPRLPRPRPRPCAGPRP — within 0.2 log units, 0.0736
- RRIRNRPPRLPRPRPRPLPMPRP — lower, -0.14
- RRIRLRPPRLPRPRPRPFYPPRP — lower, -0.504
- RRIRTRPPRLPRPRPRPPNKPRP — lower, -0.275
- RRIRHRPPRLPRPRPRPFQTPRP — lower, -0.183
- RRIRTRPPRLPRPRPRPAENPRP — within 0.2 log units, 0.0214
- RRIRKRPPRLPRPRPRPLIQPRP — within 0.2 log units, 0.112
- RRIRFRPPRLPRPRPRPDKNPRP — lower, -0.413
- RRIRWRPPRLPRPRPRPYFDPRP — lower, -0.811
- RRIRTRPPRLPRPRPRPGDRPRP — within 0.2 log units, 0.0976
- RRIRRRPPRLPRPRPRPPLIPRP — higher, 0.511
- RRIRDRPPRLPRPRPRPDHIPRP — lower, -0.0651
- RRIRVRPPRLPRPRPRPSDDPRP — lower, -0.417
- RRIRSRPPRLPRPRPRPIKGPRP — within 0.2 log units, -0.00753
- RRIRFRPPRLPRPRPRPPAFPRP — within 0.2 log units, 0.112
- RRIRRRPPRLPRPRPRPLRVPRP — higher, 0.966
- RRIRNRPPRLPRPRPRPEQPPRP — within 0.2 log units, 0.0618
- RRIRPRPPRLPRPRPRPSCGPRP — within 0.2 log units, 0.137
- RRIRFRPPRLPRPRPRPGRNPRP — lower, -0.173
- RRIRLRPPRLPRPRPRPKNRPRP — within 0.2 log units, 0.177
- RRIRCRPPRLPRPRPRPMHVPRP — within 0.2 log units, 0.0371
- RRIRQRPPRLPRPRPRPSQDPRP — within 0.2 log units, -0.0378
- RRIRARPPRLPRPRPRPVHHPRP — lower, -0.0524
- RRIRWRPPRLPRPRPRPHVWPRP — within 0.2 log units, 0.126
- RRIRHRPPRLPRPRPRPLVRPRP — lower, -0.103
- RRIRIRPPRLPRPRPRPRDCPRP — lower, -0.296
- RRIRWRPPRLPRPRPRPSGYPRP — within 0.2 log units, 0.141
- RRIRLRPPRLPRPRPRPAFIPRP — lower, -0.116
- RRIRTRPPRLPRPRPRPLVWPRP — higher, 0.44
- RRIRTRPPRLPRPRPRPVDEPRP — lower, -0.146
- RRIRYRPPRLPRPRPRPLSVPRP — lower, -0.576
- RRIRNRPPRLPRPRPRPWIVPRP — within 0.2 log units, 0.0724
- RRIRCRPPRLPRPRPRPNVCPRP — within 0.2 log units, -0.00167
- RRIRNRPPRLPRPRPRPEHKPRP — within 0.2 log units, 0.00308
- RRIRCRPPRLPRPRPRPLRSPRP — higher, 0.482
- RRIRYRPPRLPRPRPRPQQLPRP — lower, -0.181
- RRIRPRPPRLPRPRPRPECAPRP — higher, 0.698
- RRIRKRPPRLPRPRPRPIQMPRP — lower, -0.107
- RRIRGRPPRLPRPRPRPFCYPRP — higher, 0.362
- RRIRNRPPRLPRPRPRPFTYPRP — within 0.2 log units, -0.0143
- RRIRMRPPRLPRPRPRPYHWPRP — lower, -0.101
- RRIRNRPPRLPRPRPRPHPMPRP — within 0.2 log units, 0.0281
- RRIRHRPPRLPRPRPRPLFYPRP — lower, -0.702
- RRIRARPPRLPRPRPRPCGQPRP — within 0.2 log units, 0.25
- RRIRDRPPRLPRPRPRPNDIPRP — lower, -0.211
- RRIRCRPPRLPRPRPRPQTKPRP — within 0.2 log units, 0.146
- RRIRVRPPRLPRPRPRPDKMPRP — lower, -0.0822
- RRIRMRPPRLPRPRPRPSWQPRP — within 0.2 log units, 0.305
- RRIRGRPPRLPRPRPRPSQGPRP — lower, -0.187
- RRIRWRPPRLPRPRPRPCMRPRP — higher, 0.506
- RRIRMRPPRLPRPRPRPDVNPRP — within 0.2 log units, 0.0361
- RRIRARPPRLPRPRPRPSWDPRP — within 0.2 log units, 0.244
- RRIRPRPPRLPRPRPRPEFIPRP — lower, -0.117
- RRIRTRPPRLPRPRPRPGWFPRP — higher, 0.461
- RRIRIRPPRLPRPRPRPYPHPRP — lower, -1.02
- RRIRDRPPRLPRPRPRPPQHPRP — within 0.2 log units, 0.171
- RRIRQRPPRLPRPRPRPGMYPRP — lower, -0.35
- RRIRYRPPRLPRPRPRPDSKPRP — lower, -0.352
- RRIRLRPPRLPRPRPRPCGNPRP — within 0.2 log units, 0.0862
- RRIRPRPPRLPRPRPRPAIWPRP — higher, 0.405
